These results are taken from patent publication US20080176756A1.

The target of this test is Cyclosporine 29-56-14 combinatorial mutant clone R2-9 (scFv on yeast). Put plainly: competition, flow cytometry on yeast; M17 0 to 5 uM against 0.5 nM bt-CsA; physiological or selection diluent. For orientation: In flow cytometry, cells or beads pass a laser one at a time.

With cyclosporine A metabolite M17 (peptide), the fold increase of IC50 compared to WT CsA 29-56-14 is 30 to 100 fold.
